The nature of data set [1]: Glucose-dependent fluorescence emission intensity spectra of conjugates (Nanodrop3300). It is filed as biochemical. Particulars: Nanodrop3300. The source says:
Semi-synthetic FRSs were engineered by site-specifically attaching thiol-reactive, environmentally sensitive fluorophores that respond to ligand-mediated conformational changes. Identification of FRS candidates that are useful for sensing applications comprises three steps: • 1. Cysteine scan. Mutant glucose-binding proteins containing single cysteines are constructed for site-specific attachment of thiol-reactive fluorophores. […] Candidate positions fall into three classes: endosteric, replacing a residue that contacts the ligand directly; peristeric, located at the rim of the binding site; allosteric (Marvin et al. 1997 Proc Natl Acad Sci USA, 94, 4366-71; Marvin 1998 J Am Chem Soc, 120, 7-11), located outside the binding site at sites that undergo local structural changes in concert with the hinge-bending motion. • 2. Fluorophore screening. Thiol-reactive, environmentally sensitive fluorophores are attached to each cysteine mutant prepared in step 1. • 3. Evaluation of the glucose-mediated change of all the fluorescent conjugates prepared in step 2. Responses to ligand binding in which there is both a change in fluorescence emission intensity and spectral shape was essential for chemometric applications, because such changes enable ratiometric measurements. Changes in spectral shape typically are accompanied by a shift in the wavelength of the emission intensity maxima. Three classes of fluorescent responses are possible: • i. No response. • ii. Monochromatic response (emission intensity increases or decreases without a change in spectral shape) • iii.

Data set [2] in a line: Thermostability: mid-point thermal denaturation temperature (Tm) from temperature-dependent fluorescence (Roche LightCycler). It is filed as physicochemical. Particulars: apo-protein. Put shortly: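 Unfolding tracked by SYPRO binding to denatured protein, fluorescence at 488 nm/510 nm recorded on a LightCycler as temperature rose in 1 K steps. Tm taken as denaturation mid-point, for protein in solution or immobilized on Ni-NTA or NHS-agarose beads.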

Data set [3] in a line: Galactose binding: isothermal fluorescence titrations of conjugates. Also on record: key to Galactose trueKd: nb, no bonding. The settings on record: for Kd: read-out: Galactose trueKd; for S, selectivity = trueKd(galactose)/trueKd(glucose): S > 1, selective for glucose.
Data set [4] in a line: Glucose binding: isothermal fluorescence titrations, ratiometric (appKd) and monochromatic (trueKd) fits. The settings on record: room temperature. Also on record: key to Glucose appKd / Glucose trueKd: nb, no bonding. The source says:
2 For a single glucose-binding site, the fractional saturation is given by
[formula] where ^apoIλ2 and ^satIλ2 are the emission intensities of the monochromatic signal at wavelength λ2 of the ligand-free and ligand-bound protein, respectively.

[5] abbreviates: Acrylodan conjugate of ttGGBP.17C mutant.
[6] abbreviates: Badan conjugate of ttGGBP.17C mutant.
The mark [7] stands for this setting: Acrylodan conjugate, monochromatic titration curves, room temperature.
[8] abbreviates: Badan conjugate, monochromatic titration curves, room temperature.
Where [9] appears, read: read-out: Glucose appKd, Acrylodan conjugate, dichromatic ratiometry.
The mark [10] stands for this setting: read-out: Glucose appKd, Badan conjugate, dichromatic ratiometry.
Where [11] appears, read: read-out: Glucose trueKd, Badan conjugate, monochromatic titration curves.
Where [12] appears, read: read-out: Glucose trueKd, Acrylodan conjugate, monochromatic titration curves.

B1: ttGGBP17C.3: affinity-tuning mutant, 17C background, SEQ ID NO: 68 (protein)
chain: MKQLNIGVAIYKFDDNCMTGVRNAMTAEAQGKAKLNMVDSQNSQPTQNDQVDLFITKKMNALAINPVDRTAAGTIIDKAKQANIPVVFFNREPLPEDMKKWDKVYYVGAKAEQSGILQGQIMADYWKAHPEADKNHDGVMQYVMLMGQPGHQDAILRTQYSIQTVKDAGIKVQELAKDYANWDRVTAHDKMAAWLSSFGDKIEAVFANNDAMALGAIEALKSAGYFTGNKYIPVVGVDATAPGIQAIKDGTLLGTVLNDAKNQAKATFNIAYELAQGITPTKDNIGYDITDGKYVWIPYKKITKDNISDAEQGGSHHHHHH
modifications: ttGGBP17C.3 (affinity-tuning mutant, 17C background (Table 6) with signal peptide replaced with M and GGSHHHHHH at C-terminus)
As for B1, the “Type of fluorescence response to glucose” value in data set [1] (setting [5]) is “d (d, intensity decrease only)”; in data set [1] (setting [6]), “r(h) (r(h), ratiometric (hypsochromic shift))”. The apoTm in data set [2] (Badan conjugate) is recorded as 346 K. The Kd in data set [3] (setting [7]) was determined as 530 µM; in data set [3] (setting [8]), 2500 µM; in data set [4] (setting [9]) it was 1400 µM; in data set [4] (setting [10]) it was 3400 µM; in data set [4] (setting [11]), 4100 µM.

B2: ttGGBP17C.7: affinity-tuning mutant, 17C background, SEQ ID NO: 72 (protein)
chain: MKQLNIGVAIYKFDNTCMTGVRNAMTAEAQGKAKLNMVDSQNSQPTQNDQVDLFITKKMNALAINPVDRTAAGTIIDKAKQANIPVVFFNREPLPEDMKKWDKVYYVGAKAEQSGILQGQIMADYWKAHPEADKNHDGVMQYVMLMGQPGHQDAILRTQYSIQTVKDAGIKVQELAKDYANWDRVTAHDKMAAWLSSFGDKIEAVFANNDDMALGAIEALKSAGYFTGNKYIPVVGVDATAPGIQAIKDGTLLGTVLNDAKNQAKATFNIAYELAQGITPTKDNIGYDITDGKYVWIPYKKITKDNISDAEQGGSHHHHHH
modifications: ttGGBP17C.7 (affinity-tuning mutant, 17C background (Table 6) with signal peptide replaced with M and GGSHHHHHH at C-terminus)
Regarding B2, the “Type of fluorescence response to glucose” value in data set [1] (setting [5]) is on record as “d (d, intensity decrease only)”; in data set [1] (setting [6]), “d (d, intensity decrease only)”. The apoTm in data set [2] (Acrylodan conjugate) was found to be 348 K; in data set [2] (Badan conjugate) it was 347 K. Besides, the “S, selectivity = trueKd(galactose)/trueKd(glucose)” value in data set [3] (Acrylodan conjugate) is given as 0.91; in data set [3] (Badan conjugate) it was 0.64. Besides, the Kd in data set [3] (setting [7]) was found to be 300 µM; in data set [3] (setting [8]) it was 640 µM; in data set [4] (setting [9]), 300 µM; in data set [4] (setting [10]), 750 µM; in data set [4] (setting [12]), 300 µM; in data set [4] (setting [11]), 1000 µM.

B3: ttGGBP17C.20: affinity-tuning mutant, 17C background, SEQ ID NO: 78 (protein)
chain: MKQLNIGVAIYKFDDTCMTGVRNAMTAEAQGKAKLNMVDSQNSQPTQNDQVDLFITKKMNALAINPVDRTAAGTIIDKAKQANIPVVFFNREPLPEDMKKWDKVYYVGAKAEQSGILQGQIMADYWKAHPEADKNHDGVMQYVMLMGQPGHQDAILRTQYSIQTVKDAGIKVQELAKDYANWDRVTAHDKMAAWLSSFGDKIEAVFANNDDMALGAIEALKSAGYFTGNKYIPVVGVDATAPGIQAIKDGTLLGTVLSDAKNQAKATFNIAYELAQGITPTKDNIGYDITDGKYVWIPYKKITKDNISDAEQGGSHHHHHH
modifications: ttGGBP17C.20 (affinity-tuning mutant, 17C background (Table 6) with signal peptide replaced with M and GGSHHHHHH at C-terminus)
For the molecule B3, in data set [1] (setting [5]), the “Type of fluorescence response to glucose” value is given as “d (d, intensity decrease only)”. This molecule also had an apoTm in data set [2] (Badan conjugate) of 344 K. For the same molecule, the “Galactose trueKd” value in data set [3] (setting [8]) is “nb^e”. In addition, the “Glucose appKd” value in data set [4] (Badan conjugate, dichromatic ratiometry) was “nb^e”. In addition, the “Glucose trueKd” value in data set [4] (Badan conjugate, monochromatic titration curves) was “nb^e”.

B4: ttGGBP17C.8: affinity-tuning mutant, 17C background, SEQ ID NO: 73 (protein)
chain: MKQLNIGVAIYKFDDNCMTGVRNAMTAEAQGKAKLNMVDSQNSQPTQNDQVDLFITKKMNALAINPVDRTAAGTIIDKAKQANIPVVFFNREPLPEDMKKWDKVYYVGAKAEQSGILQGQIMADYWKAHPEADKNHDGVMQYVMLMGQPGHQDAILRTQYSIQTVKDAGIKVQELAKDYANWDRVTAHDKMAAWLSSFGDKIEAVFANNDDMALGAIEALKSAGYFTGNKYIPVVGVDATAPGIQAIKDGTLLGTVLNDAKNQAKATFNIAYELAQGITPTKDNIGYDITDGKYVWIPYKKITKDNISDAEQGGSHHHHHH
modifications: ttGGBP17C.8 (affinity-tuning mutant, 17C background (Table 6) with signal peptide replaced with M and GGSHHHHHH at C-terminus)
Regarding B4, the “Type of fluorescence response to glucose” value in data set [1] (setting [5]) is listed as “r(h) (r(h), ratiometric (hypsochromic shift))”. The molecule also had an apoTm in data set [2] (Acrylodan conjugate) of 348 K. Further, the “S, selectivity = trueKd(galactose)/trueKd(glucose)” value in data set [3] (Acrylodan conjugate) was determined as 0.43. Moreover, the values for the Kd in data set [3] (setting [7]), in data set [4] (setting [9]) and in data set [4] (setting [12]) were 260 µM, 610 µM and 600 µM, respectively.

B5: ttGGBP17C.4: affinity-tuning mutant, 17C background, SEQ ID NO: 69 (protein)
chain: MKQLNIGVAIYKFDDTCMTGVRNAMTAEAQGKAKLNMVDSQNSQPTQNDQVDLFITKKMNALAINPVDRTAAGTIIDKAKQANIPVVFFNREPLPEDMKKWDKVYYVGAKAEQSGILQGQIMADYWKAHPEADKNHDGVMQYVMLMGQPGQQDAILRTQYSIQTVKDAGIKVQELAKDYANWDRVTAHDKMAAWLSSFGDKIEAVFANNDDMALGAIEALKSAGYFTGNKYIPVVGVDATAPGIQAIKDGTLLGTVLNDAKNQAKATFNIAYELAQGITPTKDNIGYDITDGKYVWIPYKKITKDNISDAEQGGSHHHHHH
modifications: ttGGBP17C.4 (affinity-tuning mutant, 17C background (Table 6) with signal peptide replaced with M and GGSHHHHHH at C-terminus)
For the molecule B5, the “Type of fluorescence response to glucose” value in data set [1] (setting [5]) is “r(h) (r(h), ratiometric (hypsochromic shift))”; in data set [1] (setting [6]), “r(h) (r(h), ratiometric (hypsochromic shift))”. In data set [2] (Badan conjugate), this molecule gave an apoTm of 347 K. Moreover, the “S, selectivity = trueKd(galactose)/trueKd(glucose)” value in data set [3] (Acrylodan conjugate) came to 0.29; in data set [3] (Badan conjugate), 2.2. The Kd in data set [3] (setting [7]) was found to be 14000 µM; in data set [3] (setting [8]), 14000 µM; in data set [4] (setting [9]), 50000 µM; in data set [4] (setting [10]) it was 16000 µM; in data set [4] (setting [12]), 48000 µM; in data set [4] (setting [11]), 6400 µM.

B6: ttGGBP17C.6: affinity-tuning mutant, 17C background, SEQ ID NO: 71 (protein)
chain: MKQLNIGVAIYKFDETCMTGVRNAMTAEAQGKAKLNMVDSQNSQPTQNDQVDLFITKKMNALAINPVDRTAAGTIIDKAKQANIPVVFFNREPLPEDMKKWDKVYYVGAKAEQSGILQGQIMADYWKAHPEADKNHDGVMQYVMLMGQPGHQDAILRTQYSIQTVKDAGIKVQELAKDYANWDRVTAHDKMAAWLSSFGDKIEAVFANNDDMALGAIEALKSAGYFTGNKYIPVVGVDATAPGIQAIKDGTLLGTVLNDAKNQAKATFNIAYELAQGITPTKDNIGYDITDGKYVWIPYKKITKDNISDAEQGGSHHHHHH
modifications: ttGGBP17C.6 (affinity-tuning mutant, 17C background (Table 6) with signal peptide replaced with M and GGSHHHHHH at C-terminus)
Turning to B6, the “Type of fluorescence response to glucose” value in data set [1] (setting [6]) is on record as “r(h) (r(h), ratiometric (hypsochromic shift))”. In addition, in data set [2] (Badan conjugate), the apoTm worked out at 346 K. Moreover, the “S, selectivity = trueKd(galactose)/trueKd(glucose)” value in data set [3] (Badan conjugate) turned out to be 1. Besides, the results for the Kd in data set [3] (setting [8]), in data set [4] (setting [10]) and in data set [4] (setting [11]) were 3600 µM, 3300 µM and 3600 µM, respectively.

The values above are taken from patent publication US11156615B2 (priority 2015, dated 2021).
